Experimental findings from patent US20130230533A1 (Regeneron, published 2013) are described below.

Positions count from the first letter of the chain named. In names and notes the source's numbering stands.

The target of one test is T1, Dimeric human CD48-mFc (human).
T1 chain: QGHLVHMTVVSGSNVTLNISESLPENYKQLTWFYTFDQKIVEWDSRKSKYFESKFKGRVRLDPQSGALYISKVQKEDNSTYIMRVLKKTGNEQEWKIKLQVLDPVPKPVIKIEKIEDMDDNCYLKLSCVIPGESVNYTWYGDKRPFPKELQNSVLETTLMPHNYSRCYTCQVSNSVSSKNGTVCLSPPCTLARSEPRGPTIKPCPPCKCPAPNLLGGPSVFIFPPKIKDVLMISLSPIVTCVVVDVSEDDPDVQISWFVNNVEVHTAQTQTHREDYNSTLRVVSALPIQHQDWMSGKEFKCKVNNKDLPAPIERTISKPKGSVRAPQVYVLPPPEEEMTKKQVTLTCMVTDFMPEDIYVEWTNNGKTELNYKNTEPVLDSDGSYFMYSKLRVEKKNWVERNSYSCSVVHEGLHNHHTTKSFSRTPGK
As to the kind of experiment: SPR (Biacore T100), 25 C, antibody captured by anti-Fc, dimeric CD48-mFc in solution. The procedure:
(§1) Measurements were conducted on a T100-2 BIACORE™ instrument (Biacore Life Sciences division of GE Healthcare, Piscataway, N.J.). Antibodies (either with mouse Fc [designated “H2M” or “H3M”] or human IgG4 Fc [designated “H4H”]) were captured through an anti-Fc chip surface, and CD48 was flowed over the surface either in a monomeric (soluble CD48 expressed with a myc-myc-hexa-histidine C-terminal tag [mmH]) or dimeric (soluble CD48 expressed with a C-terminal Fc fusion [mFc]) format.
(§2) The soluble CD48 was applied to the flow cell in separate injections at different concentrations, and kinetic association (kₐ) and dissociation (kd) rate constants were determined by fits to the kinetic binding data using Biacore software. Binding dissociation equilibrium constants and dissociation half-times were calculated from the kinetic rate constants as: KD=kd/kₐ; t_{1/2}=(ln 2/kd) (units: ka=M⁻¹*s⁻¹; kd=s⁻¹; KD=M; T½=min) (Tables 3-6).

The next test deals with T2, Monomeric human CD48-mmH (human).
T2 construct: also called soluble CD48 expressed with a myc-myc-hexa-histidine C-terminal tag [mmH]
T2 chain: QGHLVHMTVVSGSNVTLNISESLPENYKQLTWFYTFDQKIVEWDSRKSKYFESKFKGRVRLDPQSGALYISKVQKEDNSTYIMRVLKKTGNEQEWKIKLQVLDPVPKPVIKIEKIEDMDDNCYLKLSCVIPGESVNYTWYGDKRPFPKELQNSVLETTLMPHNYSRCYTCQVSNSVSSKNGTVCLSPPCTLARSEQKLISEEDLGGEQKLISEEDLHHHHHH
In words: SPR (Biacore T100), 25 C, antibody captured by anti-Fc, monomeric CD48-mmH in solution. As for the experimental part: as §1, §2

B1: H4H1772P (antibody, human IgG4, V domains shown)
VH: EVQLVESGGGLVQPGGSLRLSCAASGFTFSSYWMSWVRQAPGKGLEWVANIMRDGSEKYYVDSVKGRFTISRDNAKNSLYLQMNSLRGEDTAVYYCARERGFYTNYGNWFDPWGQGTLVTVSS
VL: DIVMTQSPLSLTVTPGESASISCRSSQSLLHSYGYNSLDWYLQKPGQSPQFLIYLVSNRASGVPDRFSGSGSGTDFTLKISRVEAEDVGVYYCMQVLQTPYTFGQGTKLEIK
notes: Human IgG4 Fc (prefix H4H)
In the test with Dimeric human CD48-mFc, B1 registered a Kd of 0.0344 nM, a T½ of 894 min, a koff of 1.29e-05 s⁻¹ and a kon of 376000 M⁻¹ s⁻¹. Besides, in the test with Monomeric human CD48-mmH, the Kd was 1.38 nM, the T½ was found to be 66 min, the koff worked out at 0.000176 s⁻¹ and the kon worked out at 127000 M⁻¹ s⁻¹.

B2: H4H1771P (antibody, human IgG4, V domains shown)
VH: QVQLVQSGTEVKKPGASVKVSCKVSGYTLIDLSIHWVRQAPGEGLEWMGGFDPEESETIYAQKFQGRVTMTEDTSTDTAYMELSSLRSEDTAVYYCVTEPIFGILIHESWGQGTLVTVSS
VL: DIVMTQTPLSSPVTLGQPASISCRSSHSPVHSNGHTYLSWLQQRPGQPPRILIYKISRRFSGVPDRFSGSGAGTDFTLKISRVETEDVGIYYCMQASQFPWTFGQGTKVEIK
notes: Human IgG4 Fc (prefix H4H)
On to B2, for which, in the test with Dimeric human CD48-mFc, the Kd came to 0.00736 nM, the T½ came to 759 min, the koff worked out at 1.52e-05 s⁻¹ and the kon came to 2.07e+06 M⁻¹ s⁻¹. Also, in the test with Monomeric human CD48-mmH, binding was put at a Kd of 0.26 nM, the T½ came out at 55 min, the koff is 0.000209 s⁻¹ and the kon was found to be 805000 M⁻¹ s⁻¹.

B3: H2M1707N (antibody, mouse IgG2, V domains shown)
VH: EGQLLESGGGLAQPGGSLRLSCAASGITFGRYAMSWVRQAPGKGLEWVSLISGSGGSTYHADSVKGRFTISRDNSKNTLYLQMNSLRAEDTAVYYCAIYNNYNWFDPWGQGTLVTVSS
VL: EIVLTQSPGTLSLSPGERATLSCRASQSVSSNYLAWYQQKPGQAPRLLIYDASSRATDIPDRFSGSGSGTDFTLTISRLEPEDFAVYYCQQYGSSPRTFGQGTKVEIK
Take B3: in the test with Dimeric human CD48-mFc, the affinity, expressed as Kd, was 0.0923 nM; the T½ was 175 min; the koff stood at 6.59e-05 s⁻¹; the kon was 714000 M⁻¹ s⁻¹. In the test with Monomeric human CD48-mmH, this molecule came in with a Kd of 4.92 nM, a T½ of 18 min, a koff of 0.000642 s⁻¹ and a kon of 131000 M⁻¹ s⁻¹.

B4: H4H1707N (antibody, human IgG4, V domains shown)
VH: B3 VH
VL: B3 VL
notes: Human IgG4 Fc (prefix H4H)
On to B4, for which, in the test with Dimeric human CD48-mFc, the Kd worked out at 0.0736 nM, the T½ came to 408 min, the koff was found to be 2.83e-05 s⁻¹ and the kon stood at 385000 M⁻¹ s⁻¹. In the test with Monomeric human CD48-mmH, this molecule came in with a Kd of 3.57 nM, a T½ of 19 min, a koff of 0.000601 s⁻¹ and a kon of 168000 M⁻¹ s⁻¹.

B5: H3M1766N (antibody, V domains shown)
VH: EVQLVESGGGLAQPGGSLRLSCAASGFTFSSYEMNWVRQAPGKGLEWVSYITTSGSTIYYADSVKGRFTMSRDNAKKSLYLEMNSLRAEDTAVYYCAREECTNGVCYKDYQYYGMDVWGQGTTVTVSS
VL: DIQMTQSPSSVSASVGDRVTITCRASQNINTWLAWYQQKPGKVPKLLIYAASSLQSGVPSRFSGSGSGTDFTLTISSLQPEDFATYYCQQANSFPLTFGGGTKVEIK
notes: also called H2M1766N
In the test with Dimeric human CD48-mFc, B5 had a Kd of 0.51 nM, a T½ of 176 min, a koff of 6.57e-05 s⁻¹ and a kon of 129000 M⁻¹ s⁻¹. In the test with Monomeric human CD48-mmH, the Kd is 2.79 nM, the T½ was 65 min, the koff amounted to 0.000177 s⁻¹ and the kon amounted to 63400 M⁻¹ s⁻¹.

B6: H4H1770P (antibody, human IgG4, V domains shown)
VH: QVQLVQSGAEVKKPGAAVKVSCKASGYTFTAYGISWVRQAPGQGLEWMGWISAYDGDTNNAQKFQGRVTMTTDTSSSTAYMELRSLGSDDTAVYYCARDRYSSSSGYFDYWGQGTLVTVSS
VL: B5 VL with N28D, N30S, T31S, Y36S, V43A, L46A, L96Y, G100Q, V104L
notes: Human IgG4 Fc (prefix H4H)
As to B6, in the test with Dimeric human CD48-mFc, the Kd is 0.00325 nM, the T½ was 2080 min, the koff came out at 5.54e-06 s⁻¹ and the kon was 1.71e+06 M⁻¹ s⁻¹. In the test with Monomeric human CD48-mmH, the Kd came to 0.259 nM, the T½ is 76 min, the koff amounted to 0.000153 s⁻¹ and the kon came to 589000 M⁻¹ s⁻¹.
